From PMC9936545, “Diurnal Fluctuations of Orexin-A and -B in Cynomolgus Monkey Cerebrospinal Fluid Determined by a Novel Analytical Method Using Antiadsorptive Additive Treatment Followed by Nanoflow Liquid Chromatography–High-Resolution Mass Spectrometry” (ACS Chemical Neuroscience, 2023)
Where no end group is shown, it is not given here.

Legend:
[1] = Recovery of spiked OXA and OXB during syringe and tube transfer in monkey CSF (nonspecific binding); assay type: physicochemical, cynomolgus monkey; settings: nanoLC-HRMS; for recovery (%), spike recovery: spiked at final 100 pg/mL
Procedure: To overcome those problems, a mixture of 20 mM citric acid and 0.1% (w/v) Tween 80 (final concentrations) was added to the monkey CSF. […] Next, recovery during syringe transfer was assessed using the following procedure (Figure S2). […] Then, the spiked CSF was collected from the tube using a needle and a syringe. To the tube, 6 μL of 1M citric acid and 3 μL of 10% (w/v) Tween 80 were added, and the 300 μL of spiked CSF was returned from the syringe to the tube. The tube, the needle, and the syringe were rinsed by pipetting with CSF containing 20 mM citric acid and 0.1% (w/v) Tween 80 (final concentrations).
The samples were prepared in triplicate. […] The whole sample was removed from the tube using an injection needle (25G, Terumo Corporation, Tokyo, Japan) and a syringe (Terumo Corporation, Tokyo, Japan). Then, 1 M citric acid (6 μL) and 10% (w/v) Tween 80 (3 μL) were added to the empty tube to reach the final concentrations of 20 mM and 0.1%. The sample was returned from the syringe to the tube. The tube and syringe were then rinsed by pipetting five times with the CSF containing 20 mM citric acid and 0.1% (w/v) Tween 80. Finally, the whole sample was transferred to another tube. Recovery during tube transfer was assessed after repeating the procedure three times with monkey CSF containing 20 mM citric acid and 0.1% (w/v) Tween 80. The reference sample was prepared without syringe transfer, pipetting, or tube transfer. Recovery was calculated based on the quantitative values, which were the total values of endogenous and spiked orexins, in the testing samples to that in the reference sample.
CSF collection from cynomolgus monkey (A). Eppendorf Protein LoBind® tubes (1.5mL) were used for sample preparation. The syringe and needle used for CSF collection were washed by pipetting five times with collected CSF including anti- adsorptive additives to prevent non-specific adsorption to the instruments. Recovery test during syringe and tube transfer (B). Eppendorf Protein LoBind® tubes (1.5mL) were used for sample preparation. A tube containing neat CSF spiked with the standards for
The spiked CSF was collected from the tube using a needle and a syringe.
The tube, the needle, and the syringe were rinsed by pipetting five times w ith CSF containing citric acid/Tween 80.

[2] = Processed sample stability in autosampler; assay type: physicochemical, cynomolgus monkey; settings: autosampler at 10 °C
Procedure: Reproducibility was evaluated by intraday and interday assays of spiked quality control (QC) in the surrogate matrix (SQC) and in the real matrix (RQC). […] Carry-over was assessed by injecting blank samples immediately after a calibration standard at the upper limit of quantification. […] The preparation and storage of all CSF samples were conducted under the stable conditions described above.
Working IS solutions at 500 pg/mL were prepared by diluting the IS stock solutions with a mixture of 0.1% (w/v) bovine serum albumin and 20 mM citric acid and 0.1% (w/v) Tween 80 (final concentrations) in Dulbecco’s phosphate-buffered saline (PBS) as the surrogate matrix. The surrogate matrix was used as a blank matrix for the calibration curve, SQC samples for method qualification, and blank samples. […] RQC samples, which were monkey CSF containing 20 mM citric acid and 0.1% (w/v) Tween 80, were also prepared to confirm the parallel between the surrogate and real matrices. […] Stability was evaluated based on the difference from the initial sample. The processed sample stability was evaluated using three replicates of real matrix. […] The stored samples were reinjected with freshly processed calibration samples. The processed sample stability was evaluated to compare the back-calculated concentrations. […]

[3] = OXA and OXB in cisternal CSF collected with and without antiadsorptive additives; assay type: in vivo, cynomolgus monkey; settings: cisternal CSF at 17:00, collected on different days; additives 20 mM citric acid and 0.1% (w/v) Tween 80; N = 5 for OXA, N = 4 for OXB
Procedure: LoBind tubes were used for preparing the nanoLC-HRMS samples. The IS working solution (60 μL) was mixed with a CSF, calibration curve, SQC, or RQC (50 μL) sample. Samples for the calibration curves were added with freshly prepared calibration standards (5 μL) corresponding to 2.5, 5, 20, 25, 50, 100, and 250 pg/mL, while DMSO (5 μL) was added to other samples. The samples were mixed with 10% (v/v) phosphoric acid (20 μL) and then centrifuged at 18,360g for 5 min at 4 °C. The supernatant (120 μL) was loaded into an HLB μElution plate and washed with 200 μL of methanol/water mixture (5:95, v/v). Orexins and ISs were eluted with 200 μL of acetonitrile/water/formic acid (80:20:0.1, v/v/v). After centrifugation at 4283g for 5 min at 4 °C, the supernatant (180 μL) was evaporated to dryness under a stream of nitrogen gas at room temperature. The precipitates were reconstituted in 40 μL of acetonitrile/water/trifluoroacetic acid (TFA) (4:96:0.01, v/v/v). After centrifugation at 12,000g for 10 min at 4 °C, the supernatant (5 μL) was used for nanoLC-HRMS.
NanoLC-HRMS was performed on an EASY-nLC 1200 system (Thermo Fisher Scientific, Inc., Waltham, MA) and a Q Exactive HF-X Orbitrap mass spectrometer (Thermo Fisher Scientific) equipped with an electrospray ionization interface. […]

[4] = Stability of OXA and OXB in real matrix (monkey CSF with 20 mM citric acid and 0.1% Tween 80); assay type: in vitro ADME, cynomolgus monkey
Procedure: Reproducibility was evaluated by intraday and interday assays of spiked quality control (QC) in the surrogate matrix (SQC) and in the real matrix (RQC). […] Carry-over was assessed by injecting blank samples immediately after a calibration standard at the upper limit of quantification.
Working IS solutions at 500 pg/mL were prepared by diluting the IS stock solutions with a mixture of 0.1% (w/v) bovine serum albumin and 20 mM citric acid and 0.1% (w/v) Tween 80 (final concentrations) in Dulbecco’s phosphate-buffered saline (PBS) as the surrogate matrix. The surrogate matrix was used as a blank matrix for the calibration curve, SQC samples for method qualification, and blank samples. […] RQC samples, which were monkey CSF containing 20 mM citric acid and 0.1% (w/v) Tween 80, were also prepared to confirm the parallel between the surrogate and real matrices. […] Stability was evaluated based on the difference from the initial sample. The processed sample stability was evaluated using three replicates of real matrix. […] The stored samples were reinjected with freshly processed calibration samples. The processed sample stability was evaluated to compare the back-calculated concentrations.

For “Orexin-A (QPLPDCCRQKTCSCRLYELLHGAGNHAAGILTL; not fully specified; ends and bridges not checked; UniProt O43612 34-66, looked up) [OXA, 33-amino acid peptide with N-terminal pyroglutamylation, amidation of the C-terminal leucine, and two intramolecular disulfide bridges]”, the “recovery (%), tube transfer (3 times)” value ([1]; monkey CSF containing 20 mM citric acid/0.1% (w/v) Tween 80, three tube transfers, LoBind tubes, mean ± SD, N = 3) was 105.2 ± 12.1%, the “recovery (%), syringe and tube transfer” value ([1]; monkey CSF spiked with OXA and OXB (3 μL of 10 ng each/mL in DMSO + 297 μL CSF), LoBind tube, 25G needle and syringe, 20 mM citric acid/0.1% (w/v) Tween 80 added after syringe collection, rinsed by pipetting five times, vs reference sample, mean ± SD, N = 3) was 100.6 ± 9.4% and the “recovery (%), spike recovery” value ([1]; monkey CSF with 20 mM citric acid/0.1% (w/v) Tween 80, mean ± SD, N = 3) was 107.1 ± 3.8%. For the same substance, the recovery ([1]; monkey CSF with addition of 0.01% (v/w) Tween 80 alone) was 106.1%, the “recovery (%), spike recovery” value ([1]; neat monkey CSF, no additives, mean ± SD, N = 3) was 41.6 ± 3.9% and the “time stable in autosampler (processed sample stability)” value ([2]; processed real-matrix samples, reconstituted in acetonitrile/water/TFA (4:96:0.01), three replicates) was “at least 48 h”. The “percent remaining after 48 h, difference from the initial analysis” value ([2]; processed samples, 48 h, three replicates of real matrix, within ±) was no more than 15%, the “concentration ratios between samples without and with the antiadsorptive additives, mean” value [3] was 30.7% and the “percent difference in QC samples for stability evaluation from the initial sample” value ([4]; freeze–thaw (3 cycles, −80 °C), room temperature 2 h, −80 °C 60 days, real matrix QC in triplicate, within ±) was no more than 15%. For the same substance, the “stability in real matrix, three freeze–thaw cycles” value ([4]; monkey CSF with 20 mM citric acid and 0.1% (w/v) Tween 80, unspiked and spiked (25 and 125 pg/mL) QC samples in triplicate, three freeze–thaw cycles at −80 °C, nanoLC-HRMS) was “stable”, the “stability in real matrix at room temperature” value ([4]; monkey CSF with 20 mM citric acid and 0.1% (w/v) Tween 80, unspiked and spiked QC samples in triplicate, room temperature for 2 h, nanoLC-HRMS) was “stable” and the “stability in real matrix at −80 °C” value ([4]; monkey CSF with 20 mM citric acid and 0.1% (w/v) Tween 80, unspiked and spiked QC samples in triplicate, −80 °C for 60 days, nanoLC-HRMS) was “stable”.
